The values that follow come from the supplement of paper PMC7125110.

± gives the standard error. This sample holds only a part of the variants without activity. Bounds are passed on as bounds.

The chains are these.
B1: glmS ribozyme (parent)
chain: AUAAAAGCGCCAGAACUACAGAAAUGUAGUUGACGAGGAGGAGGUUUAUCGAAUUUUCGGCGGAUGCCUCCAAA

Settings in all cases: with glucosamine-6-phosphate
Data set [1] covers variants of B1. Nature of the data set: self-cleavage kobs at 40 uM GlcN6P; higher = faster cleavage; RNA array. The procedure, abridged:
(§1)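 Tiles of sequenced MiSeq chips were imaged over ~14 h at 37 °C. On them, barcoded ribozyme variants had been transcribed in situ by E. coli RNA polymerase and were tracked via a hybridised Cy3 probe while glucosamine-6-phosphate (40 μM to 10 mM) in HEPES/KCl/Mg(OAc)2 buffer flowed in. Per-tile medians, normalised to baseline and to non-cleaving reference variants, were fit to one- or two-exponential decays for kobs, and weighted Michaelis–Menten fits gave kcat and KM.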

In data set [2] the parent is B1. Nature of the data set: self-cleavage kobs at 160 uM GlcN6P; higher = faster cleavage; RNA array. The procedure, abridged:
as §1

Variants of B1 are the subject of data set [3]. Nature of the data set: self-cleavage kobs at 640 uM GlcN6P; higher = faster cleavage; RNA array. The essentials:
as §1

Data set [4] covers variants of B1. Nature of the data set: self-cleavage kobs at 2500 uM GlcN6P; higher = faster cleavage; RNA array. The procedure, abridged:
as §1

In data set [5] the parent is B1. Nature of the data set: self-cleavage kobs at 10000 uM GlcN6P; higher = faster cleavage; RNA array. The essentials:
as §1

On to G35U G60C, for which the “self-cleavage kobs at 40 uM GlcN6P” value with glucosamine-6-phosphate [1] was below 1e-05 s⁻¹. Besides, the “self-cleavage kobs at 160 uM GlcN6P” value with glucosamine-6-phosphate [2] is below 1e-05 s⁻¹. In addition, the “self-cleavage kobs at 640 uM GlcN6P” value with glucosamine-6-phosphate [3] was below 1e-05 s⁻¹. The “self-cleavage kobs at 2500 uM GlcN6P” value with glucosamine-6-phosphate [4] was below 1e-05 s⁻¹. In addition, in the data set with glucosamine-6-phosphate [5], the “self-cleavage kobs at 10000 uM GlcN6P” value is below 1e-05 s⁻¹.

As for A12U A14G G29A, the “self-cleavage kobs at 40 uM GlcN6P” value with glucosamine-6-phosphate [1] is 0.00101 ± 0.00019 s⁻¹. The “self-cleavage kobs at 10000 uM GlcN6P” value with glucosamine-6-phosphate [5] worked out at 0.00831 ± 0.0018 s⁻¹.

In the case of A12U G41U A42G, in the data set with glucosamine-6-phosphate [1], the “self-cleavage kobs at 40 uM GlcN6P” value was 0.000102 ± 1.6e-05 s⁻¹. For the same variant, the “self-cleavage kobs at 10000 uM GlcN6P” value in the data set with glucosamine-6-phosphate [5] is 0.00149 ± 0.0003 s⁻¹.

For A6U G35C C61U, in the data set with glucosamine-6-phosphate [1], the “self-cleavage kobs at 40 uM GlcN6P” value was below 1e-05 s⁻¹.

For C19A A33G A36G G40A A42G G62U G63A C71A, the “self-cleavage kobs at 40 uM GlcN6P” value with glucosamine-6-phosphate [1] was below 1e-05 s⁻¹. The “self-cleavage kobs at 2500 uM GlcN6P” value with glucosamine-6-phosphate [4] is below 1e-05 s⁻¹.

For the variant C8A G38U C50G, the “self-cleavage kobs at 40 uM GlcN6P” value in the data set with glucosamine-6-phosphate [1] amounted to 4.1e-05 ± 2e-05 s⁻¹.

As for G40U A48G G63U, the “self-cleavage kobs at 40 uM GlcN6P” value with glucosamine-6-phosphate [1] was below 1e-05 s⁻¹. Besides, the “self-cleavage kobs at 160 uM GlcN6P” value with glucosamine-6-phosphate [2] is below 1e-05 s⁻¹. Also, the “self-cleavage kobs at 640 uM GlcN6P” value with glucosamine-6-phosphate [3] is below 1e-05 s⁻¹. In addition, the “self-cleavage kobs at 10000 uM GlcN6P” value with glucosamine-6-phosphate [5] is below 1e-05 s⁻¹.

Consider C10A C61A C67G, for which the “self-cleavage kobs at 40 uM GlcN6P” value with glucosamine-6-phosphate [1] came out at 4.33e-05 ± 1.9e-05 s⁻¹.

As to G40C U57A, the “self-cleavage kobs at 40 uM GlcN6P” value with glucosamine-6-phosphate [1] is below 1e-05 s⁻¹. For the same variant, the “self-cleavage kobs at 160 uM GlcN6P” value with glucosamine-6-phosphate [2] was below 1e-05 s⁻¹.

As to C50A A53C, in the data set with glucosamine-6-phosphate [1], the “self-cleavage kobs at 40 uM GlcN6P” value is below 1e-05 s⁻¹.

C8U G51C: the “self-cleavage kobs at 40 uM GlcN6P” value in the data set with glucosamine-6-phosphate [1] was below 1e-05 s⁻¹. In the data set with glucosamine-6-phosphate [2], the “self-cleavage kobs at 160 uM GlcN6P” value is below 1e-05 s⁻¹. The “self-cleavage kobs at 2500 uM GlcN6P” value in the data set with glucosamine-6-phosphate [4] was below 1e-05 s⁻¹. Also, in the data set with glucosamine-6-phosphate [5], the “self-cleavage kobs at 10000 uM GlcN6P” value was below 1e-05 s⁻¹.

As to G9C G63C, the “self-cleavage kobs at 40 uM GlcN6P” value with glucosamine-6-phosphate [1] is below 1e-05 s⁻¹. For the same variant, the “self-cleavage kobs at 160 uM GlcN6P” value with glucosamine-6-phosphate [2] was below 1e-05 s⁻¹. In addition, in the data set with glucosamine-6-phosphate [3], the “self-cleavage kobs at 640 uM GlcN6P” value was below 1e-05 s⁻¹. Also, the “self-cleavage kobs at 2500 uM GlcN6P” value with glucosamine-6-phosphate [4] is below 1e-05 s⁻¹.

With A33C A64C C68U, the “self-cleavage kobs at 40 uM GlcN6P” value with glucosamine-6-phosphate [1] was below 1e-05 s⁻¹. In addition, in the data set with glucosamine-6-phosphate [2], the “self-cleavage kobs at 160 uM GlcN6P” value was below 1e-05 s⁻¹. Further, the “self-cleavage kobs at 640 uM GlcN6P” value in the data set with glucosamine-6-phosphate [3] was below 1e-05 s⁻¹. In addition, the “self-cleavage kobs at 2500 uM GlcN6P” value with glucosamine-6-phosphate [4] is below 1e-05 s⁻¹. In the data set with glucosamine-6-phosphate [5], the “self-cleavage kobs at 10000 uM GlcN6P” value was below 1e-05 s⁻¹.

Take G41C G44U U47G: in the data set with glucosamine-6-phosphate [1], the “self-cleavage kobs at 40 uM GlcN6P” value was below 1e-05 s⁻¹.

In the case of C8G G13U U30C G43U, in the data set with glucosamine-6-phosphate [1], the “self-cleavage kobs at 40 uM GlcN6P” value was below 1e-05 s⁻¹.

On to G7U G44C, for which, in the data set with glucosamine-6-phosphate [1], the “self-cleavage kobs at 40 uM GlcN6P” value is below 1e-05 s⁻¹. The “self-cleavage kobs at 160 uM GlcN6P” value with glucosamine-6-phosphate [2] was below 1e-05 s⁻¹. Also, the “self-cleavage kobs at 640 uM GlcN6P” value with glucosamine-6-phosphate [3] is below 1e-05 s⁻¹. In addition, the “self-cleavage kobs at 2500 uM GlcN6P” value with glucosamine-6-phosphate [4] is below 1e-05 s⁻¹. In the data set with glucosamine-6-phosphate [5], the “self-cleavage kobs at 10000 uM GlcN6P” value is below 1e-05 s⁻¹.

On to U31G G35C, for which, in the data set with glucosamine-6-phosphate [1], the “self-cleavage kobs at 40 uM GlcN6P” value was below 1e-05 s⁻¹. Further, the “self-cleavage kobs at 160 uM GlcN6P” value with glucosamine-6-phosphate [2] was below 1e-05 s⁻¹. In the data set with glucosamine-6-phosphate [3], the “self-cleavage kobs at 640 uM GlcN6P” value is below 1e-05 s⁻¹. Further, the “self-cleavage kobs at 2500 uM GlcN6P” value with glucosamine-6-phosphate [4] was below 1e-05 s⁻¹.

For the variant G13C G35A, the “self-cleavage kobs at 40 uM GlcN6P” value with glucosamine-6-phosphate [1] was below 1e-05 s⁻¹. Besides, the “self-cleavage kobs at 160 uM GlcN6P” value with glucosamine-6-phosphate [2] was below 1e-05 s⁻¹. The “self-cleavage kobs at 640 uM GlcN6P” value with glucosamine-6-phosphate [3] is below 1e-05 s⁻¹. In the data set with glucosamine-6-phosphate [4], the “self-cleavage kobs at 2500 uM GlcN6P” value was below 1e-05 s⁻¹. The “self-cleavage kobs at 10000 uM GlcN6P” value in the data set with glucosamine-6-phosphate [5] is below 1e-05 s⁻¹.

With A6G A15C C16U, the “self-cleavage kobs at 40 uM GlcN6P” value in the data set with glucosamine-6-phosphate [1] was below 1e-05 s⁻¹. Moreover, the “self-cleavage kobs at 10000 uM GlcN6P” value in the data set with glucosamine-6-phosphate [5] came to 4.37e-05 ± 1.5e-05 s⁻¹.

Regarding G38A G51U A52U, in the data set with glucosamine-6-phosphate [1], the “self-cleavage kobs at 40 uM GlcN6P” value is below 1e-05 s⁻¹. In the data set with glucosamine-6-phosphate [5], the “self-cleavage kobs at 10000 uM GlcN6P” value is below 1e-05 s⁻¹.

As for G32U G38C U55A, the “self-cleavage kobs at 40 uM GlcN6P” value in the data set with glucosamine-6-phosphate [1] was below 1e-05 s⁻¹. Further, the “self-cleavage kobs at 640 uM GlcN6P” value in the data set with glucosamine-6-phosphate [3] is below 1e-05 s⁻¹. The “self-cleavage kobs at 10000 uM GlcN6P” value with glucosamine-6-phosphate [5] was below 1e-05 s⁻¹.

For the variant A15U U47C C61U, the “self-cleavage kobs at 40 uM GlcN6P” value with glucosamine-6-phosphate [1] was below 1e-05 s⁻¹. For the same variant, the “self-cleavage kobs at 10000 uM GlcN6P” value with glucosamine-6-phosphate [5] was below 1e-05 s⁻¹.

Regarding C8G A48G U54A, the “self-cleavage kobs at 40 uM GlcN6P” value in the data set with glucosamine-6-phosphate [1] is below 1e-05 s⁻¹. Besides, the “self-cleavage kobs at 2500 uM GlcN6P” value in the data set with glucosamine-6-phosphate [4] was below 1e-05 s⁻¹. Also, the “self-cleavage kobs at 10000 uM GlcN6P” value with glucosamine-6-phosphate [5] was below 1e-05 s⁻¹.

For A39C A52U C71U, the “self-cleavage kobs at 40 uM GlcN6P” value with glucosamine-6-phosphate [1] was below 1e-05 s⁻¹.

As to A15G G38U U47A C68G, the “self-cleavage kobs at 40 uM GlcN6P” value with glucosamine-6-phosphate [1] worked out at 9.09e-05 ± 3.3e-05 s⁻¹.

For the variant A33G A64U, in the data set with glucosamine-6-phosphate [1], the “self-cleavage kobs at 40 uM GlcN6P” value was below 1e-05 s⁻¹. Moreover, the “self-cleavage kobs at 10000 uM GlcN6P” value in the data set with glucosamine-6-phosphate [5] is below 1e-05 s⁻¹.
